Results: article PMC9798254

Tested on: N[C@H](COP(=O)(O)O)Cc1c[nH]cn1
Experiment: purified protein
Details: 100 mM Tris/HCl pH 7.8, 5 mM MgCl2, 25°C

Substance: ecHisB‐N (Escherichia coli K-12)
- Km: 48 ± 3 µM
- kcat: 2.8 ± 0.1 s⁻¹
- kcat/Km: 58000 M⁻¹ s⁻¹
